Source: article PMC11633740, “Rapid prediction of acute thrombosis via nanoengineered immunosensors with unsupervised clustering for multiple circulating biomarkers”

T1: C-reactive protein (CRP) (human, UniProt P02741 19-224)
T1 sequence: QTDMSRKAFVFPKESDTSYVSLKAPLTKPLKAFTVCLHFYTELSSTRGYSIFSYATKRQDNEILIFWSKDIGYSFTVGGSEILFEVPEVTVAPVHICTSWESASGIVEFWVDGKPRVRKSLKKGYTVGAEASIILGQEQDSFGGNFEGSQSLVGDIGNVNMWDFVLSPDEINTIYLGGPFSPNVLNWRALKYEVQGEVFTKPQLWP


Experiments:
C-reactive protein (CRP) = target: T1, C-reactive protein (CRP); assay: electrochemical impedance spectroscopy; aptamer on Au NP/CNT electrode; linear 0.1-10^4 ug/ml, LOD 0.023 ug/ml; SPR (Biacore 2000, SA chip): 10 mM Hepes, 150 mM NaCl, pH 7.4, 0.005% Tween 20, 25 C; EIS: 45 min incubation (plasma workflow), PBS pH 7.4 washes, 5 mM ferri/ferrocyanide probe; conditions: protein: commercial; chain copies: 5
[1] = target: soluble P-selectin (sP-selectin) (human, UniProt P16109 42-771); assay: electrochemical impedance spectroscopy; aptamer on Au NP/CNT electrode; linear 0.1-10^4 ng/ml, LOD 0.019 ng/ml; SPR (Biacore 2000, SA chip): 10 mM Hepes, 150 mM NaCl, pH 7.4, 0.005% Tween 20, 25 C; EIS: 45 min incubation (plasma workflow), PBS pH 7.4 washes, 5 mM ferri/ferrocyanide probe; conditions: protein: commercial
soluble P-selectin (sP-selectin), sequence (P16109 42-771): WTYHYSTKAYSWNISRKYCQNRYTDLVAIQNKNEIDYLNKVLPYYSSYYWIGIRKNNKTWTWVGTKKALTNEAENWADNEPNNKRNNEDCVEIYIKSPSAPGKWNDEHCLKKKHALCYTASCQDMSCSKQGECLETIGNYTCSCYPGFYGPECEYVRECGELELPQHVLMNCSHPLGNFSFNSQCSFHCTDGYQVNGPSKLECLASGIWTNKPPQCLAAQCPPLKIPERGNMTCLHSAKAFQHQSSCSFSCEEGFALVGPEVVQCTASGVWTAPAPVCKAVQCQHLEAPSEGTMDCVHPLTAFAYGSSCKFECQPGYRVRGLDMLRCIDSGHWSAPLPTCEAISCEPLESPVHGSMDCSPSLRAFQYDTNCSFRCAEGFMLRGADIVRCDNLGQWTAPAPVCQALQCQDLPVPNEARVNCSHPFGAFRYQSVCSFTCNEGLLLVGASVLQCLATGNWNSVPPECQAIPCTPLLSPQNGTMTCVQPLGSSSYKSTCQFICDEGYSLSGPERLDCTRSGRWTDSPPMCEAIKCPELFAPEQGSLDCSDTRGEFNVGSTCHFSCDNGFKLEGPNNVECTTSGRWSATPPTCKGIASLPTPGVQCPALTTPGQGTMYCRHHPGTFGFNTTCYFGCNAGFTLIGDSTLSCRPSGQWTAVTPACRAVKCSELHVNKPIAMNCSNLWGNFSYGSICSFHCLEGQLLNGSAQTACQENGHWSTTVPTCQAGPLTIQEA

Row | Binder | binding result (C-reactive protein (CRP)) | binding result [1]
1 | GCCTGTAAGGTGGTCGGTGTGGCGAGTGTGTTAGGAGAGATTGC (ssDNA, thiol (position not given) for the electrode) [CRP aptamer] | binds | –
2 | sP-selectin aptamer (ssRNA, thiol (position not given) for the electrode; no 2' modification stated) RNA: ACGCUCAACGAGCCAGGAACAUCGACGUCAGCAAACGCGAGCGCAACCAGUAACACC | – | binds
